Data taken from patent US20040071694A1 (published 2004).
Positions count from the first letter of the chain named.

T1: full length recombinant human EPO receptor (human, UniProt P19235 25-508)
T1 sequence: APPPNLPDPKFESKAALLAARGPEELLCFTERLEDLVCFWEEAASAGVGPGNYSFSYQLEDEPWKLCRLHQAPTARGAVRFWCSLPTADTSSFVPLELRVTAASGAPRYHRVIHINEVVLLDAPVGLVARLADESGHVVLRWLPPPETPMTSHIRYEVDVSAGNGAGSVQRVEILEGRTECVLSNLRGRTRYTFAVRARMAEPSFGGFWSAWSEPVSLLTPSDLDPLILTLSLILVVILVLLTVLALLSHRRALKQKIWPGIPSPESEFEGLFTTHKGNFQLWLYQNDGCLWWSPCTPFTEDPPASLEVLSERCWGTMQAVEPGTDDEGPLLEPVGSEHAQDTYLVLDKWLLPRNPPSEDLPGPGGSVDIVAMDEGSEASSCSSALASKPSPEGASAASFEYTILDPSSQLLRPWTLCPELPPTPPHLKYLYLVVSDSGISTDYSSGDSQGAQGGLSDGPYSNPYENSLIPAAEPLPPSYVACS

T2: soluble human EPO receptor (human, UniProt P19235 25-250)
T2 construct: extracellular domain; Printed only as 'soluble human EPO receptor'
T2 sequence (looked up): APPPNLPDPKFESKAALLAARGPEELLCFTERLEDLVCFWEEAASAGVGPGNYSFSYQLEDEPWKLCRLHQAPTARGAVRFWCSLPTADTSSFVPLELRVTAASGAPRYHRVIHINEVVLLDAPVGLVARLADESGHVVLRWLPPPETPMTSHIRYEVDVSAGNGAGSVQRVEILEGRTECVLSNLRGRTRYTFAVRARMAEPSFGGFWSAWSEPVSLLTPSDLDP

T3: peptide SE-3 (human)
T3 construct: also called SE-3 peptide
T3 peptide: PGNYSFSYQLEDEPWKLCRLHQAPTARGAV

T4: biotinylated EpoR (Abbott CHO cell derived ref.# RB69084:4) (UniProt P19235 25-250, limits assumed, biotinylated with biotin-NHS (sites not given))
T4 construct: also called biotin EpoR; biotin-EpoR
T4 sequence (looked up): T2 sequence (looked up)

B1: Ab12 (antibody, human IgG2, V domains shown)
VH: QVQLQESGPGLVKPSETLSLTCTVSGASISSYYWSWIRQPPGKGLEWIGYIYYSGSTNYNPSLKSRVTISVDTSKNQFSLKLRSVTAADTAVYYCARERLGIGDYWGQGTLVTVSS
VL: DIQLTQSPSSLSASVGDRVTITCRASQGIRNDLGWYQQKPGKAPKRLIYAASSLQSGVPSRFSGSGSGTEFTLTISSLQPEDFATYYCLQHNTYPPTFGQGTKVEIK
notes: Human antibody from XenoMouse; also called ABT2-SCX-012; AB-ABT2-XG2-012
B2: ABT2-SCX-022 (antibody, V domains shown)
VH: QVQLVESGGGVVQPGRSLRLSCAASGFTFSSYGMHWVRQAPGKGLEWVVVISYDGSNKYYADSVKGRFTISRDNSKNTLYLQMNSLRVEDTAVYYCARDHGGRYVYDYGMDVWGQGTTVTVSS
VL: DIQMTQSPSSVSASVGDRVSITCRASQGISSWLAWYQQKPGKAPTLLIYAASSLQRGVPSRFSGSGSGTDFTLTISSLQPEDFATYFCQQANSFPFTFGPGTKVDIK
B3: ABT2-SCX-267 (antibody, V domains shown)
VH: B2 VH with V49A, R98K
VL: B2 VL with S30G, K42Q, S76N, I106V
B4: Ab198 (antibody, human IgG2, V domains shown)
VH: B2 VH with A23V, V49A
VL: B2 VL with V15I, S53T
notes: Human antibody from XenoMouse
B5: ABT2-SCX-254 (antibody, V domains shown)
VH: QVQLVESGGGVVQPGRSLRLSCAASGFTFSSYGMHWVRQAPGKGLEWVAVIWFDGNNKFYADSVKGRFTISRDNSKNTLYLQMNSLRVEDTAVYYCARGGSYWDYWGQGTLVTVSS
VL: DIVMTQTPLFSFVMIGQPASISCRSRQSLVHSDGNTYLNWLQQRPGQPPRLLIYKTSNRFSGVPDRFSGSGAGTDFTLKISRVEAEDVGVYYCMQATQFPITFGQGTRLEIK
B6: ABT2-SCX-054 (antibody, V domains shown)
VH: B5 VH with S31K, I51L, F53Y, N56S, F59Y, V88A, G100P, S101Y, W103F
VL: not shown

Assays:
[1] = molecular target: T1, full length recombinant human EPO …; experiment: cell-based or functional assay
[2] = molecular target: T2, soluble human EPO receptor; experiment: SPR (Biacore 2000), antibody immobilized on chip, soluble receptor 10-200 nM injected
Description: Immobilizations of antibody were performed using the default immobilization program in the Biacore software package. Antibodies were diluted to 10 ug/mL in the supplied acetate buffers to prescreen for the appropriate pH at which to conduct the immobilizations. For immobilizations, antibodies were diluted into the appropriate acetate buffer (10 mM acetate pH 4.0) and coupled directly to the chip surface using standard EDC chemistry at three different protein levels (500, 1000, and 1500 RU). The fourth flow cell was mock coupled with EDC to cap the carboxyl groups and provide a background surface as a negative control.
Binding studies were performed by successive injections of varying concentrations of soluble human EPO receptor over the chip surface (500 RU immobilized protein). […]
Data were fit to the models available in the BiaEvaluation 3.0.2 software package (Biacore). […] Dissociation constants were calculated directly from fitting to the Langmuir binding model. For the bivalent analyte model, the dissociation constants were calculated indirectly using the calculated values for the kinetic dissociation and kinetic association constants, kd and kₐ.

peptide SE-3 = molecular target: T3, peptide SE-3; experiment: ELISA on plate-coated peptide SE-3
Description: Plates were blocked for 30 minutes at room temperature with 100 ul of 5% BSA in PBS (Gibco (Invitrogen (Carlsbad, Calif.)) Cat.#10010). After removal of blocking solution, 50 ul of Ab12 at 5 ug/ml in PBS with 1% BSA was added to wells and plates were incubated at room temperature for 2 hours. Plates were washed three times using a Skatron 400 Plate Washer with PBS/0.05% Tween 20 and 50 ul of secondary antibody diluted in PBS/0.25% BSA/0.05% Tween 20 added to the wells. For Ab12, goat anti-human IgG (Fc)-HRP (Caltag (Burlingame, Calif.) Cat.#H10507) diluted 1:1000 was used and for Ab 71A (available from the American Type Culture Collection HB 11689, also described in U.S. Pat. No. 6,319,499), goat anti mouse IgG (Fc)-HRP (Jackson Laboratories (West Grove, Pa.) Cat.#115-035-164) diluted 1:5000 was used. After a 1 hour incubation at room temperature, plates were washed three times as before and 50 ul of OPD Developing Reagent (Sigma #P9187) added to each well. Color development was stopped by addition of 50 ul of 1N HCl to the wells and optical density measured at 490 nm on a Victor 1420 Multi-Label Counter.

[3] = molecular target: T4, biotinylated EpoR (Abbott CHO cell …); experiment: ELISA, HEK 293 supernatant titrated 1:2 on biotin-EpoR captured on streptavidin plates

Row | Binder | proliferation of F36E cells after storage of Ab12 at 4 C, compared with the EPO control [1] [fold] | Kd [2] [µM] | binding result (peptide SE-3) | Binding (dilution of supernatant) [3]
1 | B1 | ~10 | 0.0175 | no binding (tested: 5 ug/ml) | 
2 | B2 |  |  |  | > 64 dilution 1:n
3 | B3 |  |  |  | > 64 dilution 1:n
4 | B4 |  | 0.0139 | no binding | 
5 | B5 |  |  |  | 8 dilution 1:n
6 | B6 |  |  |  | > 64 dilution 1:n
